The values that follow come from patent publication US20240343814A1.

B1: VRDN-02514 (antibody, V domains shown)
VH: EVQLVQSGGGLVKPGGSLRLSCAASGFTFSSFAMHWVRQAPGKGLEWISVIDTRGHTYYADSVKGRFTISRDNAKNSLYLQMNSLRAEDTAVYYCARLGNFYYGMDVWGQGTTVTVSS
VL: EIVLTQSPGTLSVSPGERATLSCRASQSIGSSLHWYQQKPGQAPRLLIKYASQSLSGIPDRFSGSGSGTDFTLTISRLEPEDFAVYYCHQSSRLPHTFGQGTKVEIK
B2: VRDN-02500 (antibody, human IgG1, kappa, V domains shown)
VH: B1 VH with H56A
VL: EIVLTQSPGTLSVSPGERATLSCRASQSIGSSLHWYQQKPGQAPRLLIKYASQSLSGIPDRFSGSGSGTDFTLTISRLEPEDFAVYYCHQSSRLPHTFGQGTKVEIKR
B3: VRDN-02515 (antibody, V domains shown)
VH: B1 VH with H56A, T57H
VL: B1 VL
B4: VRDN-02513 (antibody, V domains shown)
VH: B1 VH with G55H, H56A
VL: B1 VL
B5: VRDN-02526 (antibody, V domains shown)
VH: B1 VH with H56A, D106H
VL: B1 VL

Numbering of substitutions follows the chain as printed. Some results are limits rather than exact numbers.

One assay has as its target Recombinant human his-tagged IGF 1R extracellular domain protein (human) (UniProt P08069). Briefly: SPR, captured IgG, IGF-1R ECD-his analyte, dissociation pH 7.4; dissociation at pH 7.4. On the technique in general: Surface plasmon resonance follows binding to a sensor surface in real time, without labels.
The term koff denotes a measure of how fast the partners let go of each other. As for B1, the koff was < 1e-06 s⁻¹.

The target is the same in a further assay. Briefly: SPR, captured IgG, IGF-1R ECD-his analyte, dissociation pH 6.
The Kd is the concentration at which binding is half-saturated. As a reminder, the kon is the rate constant with which the complex forms. Regarding B2, the Kd is < 0.0161 nM and the kon was 47500 M⁻¹ s⁻¹.
As to B1, the Kd turned out to be 0.0283 nM, the koff is 1e-06 s⁻¹ and the kon came out at 35300 M⁻¹ s⁻¹.
For the molecule B3, the Kd came to 0.692 nM, the dissociation rate constant (koff) turned out to be 6.92e-05 s⁻¹ and the kon turned out to be 100000 M⁻¹ s⁻¹.
Turning to B4, the Kd stood at 0.0322 nM, the off-rate constant (koff) stood at 1e-06 s⁻¹ and the kon came out at 31100 M⁻¹ s⁻¹.
As for B5, the dissociation constant (Kd) was < 0.0273 nM and the on-rate constant (kon) is 36600 M⁻¹ s⁻¹.

For the next assay the target is unchanged. Briefly: SPR, captured IgG, IGF-1R ECD-his analyte, dissociation pH 6; dissociation at pH 6.
For B2, the off-rate (koff) is < 1e-06 s⁻¹.
As for B5, the koff was < 1e-06 s⁻¹.

The target is the same in the next assay. Briefly: SPR, captured IgG, IGF-1R ECD-his analyte, dissociation pH 7.4.
In the case of B2, the Kd came to 0.626 nM, the koff stood at 3.89e-05 s⁻¹ and the kon came to 62100 M⁻¹ s⁻¹.
For the molecule B1, the Kd is < 0.00926 nM and the association rate constant (kon) was 108000 M⁻¹ s⁻¹.
Take B3: the dissociation constant Kd came to 0.571 nM, the koff was found to be 5.82e-05 s⁻¹ and the on-rate (kon) was found to be 102000 M⁻¹ s⁻¹.
For the molecule B4, the equilibrium dissociation constant (Kd) was determined as 1.06 nM, the koff turned out to be 5.09e-05 s⁻¹ and the kon turned out to be 48200 M⁻¹ s⁻¹.
As to B5, the equilibrium dissociation constant (Kd) was 0.00543 nM, the dissociation rate constant (koff) stood at 1e-06 s⁻¹ and the kon was 184000 M⁻¹ s⁻¹.
